Molecular target: the molecule itself
Assay: X-ray crystal structure, homodimer in the asymmetric unit

B1: MvaS (HMG-CoA Synthase) from Enterococcus faecalis, full length with non-cleavable carboxy-terminal six histidine tag, seleno-methionine labeled (enzyme)
chain: MTIGIDKISFFVPPYYIDMTALAEARNVDPGKFHIGIGQDQMAVNPISQDIVTFAANAAEAILTKEDKEAIDMVIVGTESSIDESKAAAVVLHRLMGIQPFARSFEIKEACYGATAGLQLAKNHVALHPDKKVLVVAADIAKYGLNSGGEPTQGAGAVAMLVASEPRILALKEDNVMLTQDIYDFWRPTGHPYPMVDGPLSNETYIQSFAQVWDEHKKRTGLDFADYDALAFHIPYTKMGKKALLAKISDQTEAEQERILARYEESIVYSRRVGNLYTGSLYLGLISLLENATTLTAGNQIGLFSYGSGAVAEFFTGELVAGYQNHLQKETHLALLDNRTELSIAEYEAMFAETLDTDIDQTLEDELKYSISAINNTVRSYRNKGHHHHHH
modifications: seleno-methionine in place of methionine (100% incorporation by MS); observed mass corresponds to protein without N-terminal methionine
notes: It was crystallized as a complex with the small molecule HMG-CoA; There are two MvaS molecules (A and B) in the asymmetric unit, described as a dimer; also called MvaS Ef
Q: Does B1 bind?
A: binds

From patent publication US7252930 (Takeda / Millennium, dated 2007)
